Experimental data taken from paper PMC4945389.

B1: UT-A3: ST6GalI co-transfection (protein)
parent chain: MSDHPLKEMSDNNRSPPLPEPLSSRYKLYESELSSPTWPSSSQDTHPALPLLEMPEEKDLRSSDEDSHIVKIEKPNERSKRRESELPRRASAGRGAFSLFQAVSYLTGDMKECKNWLKDKPLVLQFLDWVLRGAAQVMFVNNPLSGLIIFIGLLIQNPWWTIAGALGTVVSTLAALALSQDRSAIASGLHGYNGMLVGLLVAVFSEKLDYYWWLLFPVTFASMACPVISSALSTVFAKWDLPVFTLPFNIALTLYLAATGHYNLFFPTTLVKPASSAPNITWSEIEMPLLLQTIPVGVGQVYGCDNPWTGGVILVALFISSPLICLHAAIGSIVGLLAALTVATPFETIYTGLWSYNCVLSCVAIGGMFYVLTWQTHLLALVCALFCAYTGAALSNMMAVVGVPPGTWAFCLSTLTFLLLTSNNPGIHKLPLSKVTYPEANRIYFLTAKRSDEQKPPNGG
B2: UT-A3: N279Q (protein)
parent chain: B1 parent chain
B3: UT-A3: tunicamycin (protein)
parent chain: B1 parent chain
B4: UT-A3: ST6GalI cRNA co-injection (protein)
parent chain: B1 parent chain
B5: UT-A3: ST3GalIV co-transfection (protein)
parent chain: B1 parent chain

Tests used:
[1] = surface biotinylation, HEK293; conditions: glycan changed form; control: UT-A3 alone
[2] = cycloheximide chase 12 h, Western blot, HEK293; conditions: glycan changed form; control: UT-A3 alone
[3] = FSK-stimulated total UT-A3, Western blot, HEK293; conditions: glycan lost; control: wild type
[4] = surface biotinylation, Xenopus oocytes
[5] = FSK-stimulated surface biotinylation, HEK293; conditions: glycan lost; control: wild type
[6] = glycan lost, control: wild type UT-A3, untreated

Protein	localisation_or_trafficking [1]	localisation_or_trafficking [4, 6]	also measured
B1	increases		degradation_or_half_life [2]: increases
B2		decreases	expression_or_secretion, other: % increase by FSK [3]: decreases; localisation_or_trafficking, other: % increase by FSK [5]: decreases
B3		decreases	
B4			localisation_or_trafficking ([4]; glycan changed form, control: UT-A3 cRNA alone): increases
B5	no change		
